Drawing on publication PMC4303301, this text covers Km, kcat and kcat/Km for 1 protein.

Usually Km stands for the concentration of substrate that gives half-maximal velocity. A word on the kcat: it is the maximal rate divided by the concentration of active sites. Usually kcat/Km stands for the turnover number divided by the Michaelis constant.

Substrate in data set [1]: O=P(O)(O)OC[C@@H](O)[C@@H](O)[C@@H](O)CO
Description: purified protein. The settings on record: 50 mM Tris-HCl pH 7.5, 1 mM MgCl2, 25 °C.

Substrate in data set [2]: O=P(O)(O)OC[C@H](O)[C@H](O)[C@H](O)CO
Description: purified protein. Conditions: 50 mM Tris-HCl pH 7.5, 1 mM MgCl2, 25 °C.

B1: EFI-501083; putative 5-amino-6-(5-phospho-D-ribitylamino) uracil phosphatase (Bacteroides thetaiotaomicron VPI-5482) (protein)
chain: MIKNIVFDFGGVIVDIDRDKAVQAFIKLGLADADTRLDKYHQTGIFQELEEGKLSADEFRKQLGDLCGRELTMEETKQAWLGFFNEVDLRKLDYILGLRKSYHVYLLSNTNPFVMSWACSPEFSSEGKPLNDYCDKLYLSYQLGHTKPAPEIFDFMIKDSHVIPSETLFVDDGSSNIHIGKELGFETFQPENGADWRQELTVILNS
Turning to B1, in “purified protein [1]”, the Km came out at 1080 ± 140 µM, the kcat was determined as 1.5 ± 0.1 s⁻¹ and the kcat/Km worked out at 1400 M⁻¹ s⁻¹. Moreover, in “purified protein [2]”, the Km is 1030 ± 180 µM, the catalytic constant (kcat) is 1.8 ± 0.1 s⁻¹ and the kcat/Km is 1700 M⁻¹ s⁻¹.
